Reference: patent US20240115745A1, “COMPOUNDS COMPRISING A FIBROBLAST ACTIVATION PROTEIN LIGAND AND USE THEREOF” (3B PHARMACEUTICALS GMBH, priority 2021, published 2024)
Bridges are numbered along the chain shown (N, C = ends). [ ]: non-standard residue; d: D form. The star is where a group is joined. mli = maleimide cyclization element: 3,4-maleimide inserted symmetrically, forming a vinyl thioether with each Cys sulfur; Ttds = 1,13-diamino-4,7,10-trioxatridecan-succinamic acid, NCCCOCCOCCOCCCNC(=O)CCC(=O)*; mli(DOTA-Ttd) = 3,4-N-(DOTA-Ttd)-maleimide bridging two Cys S atoms as vinyl thioethers; DOTA = O=C(O)CN1CCN(CC(=O)O)CCN(CC(=O)*)CCN(CC(=O)O)CC1; Nle = CCCC[C@H](N)C(=O)O; Hexanoyl = CCCCCC(=O)*

Target: fibroblast activation protein (FAP) on FAP-expressing human WI-38 fibroblasts (human), Q12884
Test: competitive FACS on WI-38 cells vs 3 nM Cy5-labeled probe; A = pIC50 >7.0
Details: remark: other sources report otherwise

Row | pIC50 Category (FACS) [pIC50] | Binder
1 | > 7 | {DOTA-Ttds}-[Nle]CPPTEFCD-NH2 (linker 2-8 via mli) [compound DOTA-Ttds-Nle-[Cys(mli)-Pro-Pro-Thr-Glu-Phe-Cys]-Asp-NH2 (2007)]
2 | > 7 | Hexanoyl-CPPTEFCD-NH2 (linker 1-7 via mli(DOTA-Ttd)) [compound Hex-[Cys(mli(DOTA-Ttd))-Pro-Pro-Thr-Glu-Phe-Cys]-Asp-NH2 (2020)]
3 | > 7 | {DOTA-Ttds}-[Nle]CPPTEFCD-NH2 (disulfide 2-8) [compound DOTA-Ttds-Nle-[Cys-Pro-Pro-Thr-Glu-Phe-Cys]-Asp-NH2 (1003)]
4 | > 7 | CPPTEFCD (HELM PEPTIDE1{[O=C(O)CN1CCN(CC(=O)O)CCN(CC(=O)[*:2])CCN(CC(=O)O)CC1].[Nle].C.P.P.T.E.F.C.D.[am]}$PEPTIDE1,PEPTIDE1,3:R3-9:R3$$$V2.0; SMILES CCCC[C@H](NC(=O)CN1CCN(CC(=O)O)CCN(CC(=O)O)CCN(CC(=O)O)CC1)C(=O)N[C@H]1CSSC[C@@H](C(=O)N[C@@H](CC(=O)O)C(N)=O)NC(=O)[C@H](Cc2ccccc2)NC(=O)[C@H](CCC(=O)O)NC(=O)[C@H]([C@@H](C)O)NC(=O)[C@@H]2CCCN2C(=O)[C@@H]2CCCN2C1=O) [compound DOTA-Nle-[Cys-Pro-Pro-Thr-Glu-Phe-Cys]-Asp-NH2 (1004)]
